The series is described as follows: soluble fraction after stress (log2 fold change); higher = more stays soluble; pooled small domains, quantitative proteomics. The following applies: stress: pH 4. The method, boiled down: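 Values are on a log2 scale, where higher means more of the domain stayed soluble after pH 4 stress. They are fold changes in the soluble amount of each domain from pooled custom libraries, measured by high-throughput quantitative proteomics. The fold change is taken to reflect aggregation propensity.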
Take “HMLVSPLDEIPGIGRNRKKTLLNHFGSAKTIEGASLEDLKKVDGISELIAKKIYNYFHLNKNF”: the “soluble fraction (log2)” value stood at 0.104.

With “HMLWTDTKYVTVPDFVGKEPKEIESSYLYNIEYHGEGTKVISQQPAAFSRTIEGGTVRLYLG”, the “soluble fraction (log2)” value was found to be 0.186.

“HMLYGRRFQVEGLNLERYLRAAADSGIPLKGARRFGRTLTGVAAEEHMAALEALARQGGWLFTPLEAVGAN”: the “soluble fraction (log2)” value is -0.0895.

Regarding “HMLYKNIAKKLRFRINSDEFAIGDVLPTERQLMEEYQASRVSIRKAIDELVAIDLIEKKQGSGTYIKQKEV”, the “soluble fraction (log2)” value is -0.493.

As for “HMMESLGIRLKRLRKDKGLTQVELGKLSGVTGVTIGYWEKDLNEPGSKALSKLAQALGTTESYLLYGVS”, the “soluble fraction (log2)” value is 0.22.

For “HMMNNKEIGTRIAVLRKGMGDSQAKLAERLDVSPQAVSKWETGQSLPDIGNLLKLSWLFRTSINHILEGS”, the “soluble fraction (log2)” value is -0.384.

For “HMNADAPWSPFSPGFTGPMNRPVIGLVTKADLANPQRISLVESWLVQAGAQKVFVTSALENTGVDEMFIFL”, the “soluble fraction (log2)” value is -0.288.

With “HMNADLDIQNVNGNTPLWEAVMRYRGDGFFIEQLLKNGANPDIKNNYGVSPKSLARTIANYDVRRFFN”, the “soluble fraction (log2)” value was -0.333.

For the sequence “HMNADSLIGENIRISERVSNMDQTGMAVVHGQEWTVRTRNDNEIIEPGEEAKILAISGVKLIVEK”, the “soluble fraction (log2)” value is -0.0665.

For “HMNAESLIGDRAVVTVAIERNKRGRVDVTGQDWAATTRDGEEIKVGQEVLVVGISGVALIVEER”, the “soluble fraction (log2)” value came out at 0.164.

In the case of “HMNAIYKFVLGMIGKRSGVVTTLPSKKQVEFQANMLAEKFMQNGIDPNALKSPEQVKNVLANIDQ”, the “soluble fraction (log2)” value was 0.01.

As to “HMNALVAKYKQGVTEEQQQGQGIIIIKRVVVRDQEAWVYEKKIFDWGGVSYFRDKQRITASTFNQETAL”, the “soluble fraction (log2)” value is -1.12.

Regarding “HMNAQLTTQEAADLLNVSRPHLVKLLEDGELPFLRTGKHRRVRLADLLQFKNAREQASVQAMDELSRQAQ”, the “soluble fraction (log2)” value was -0.177.

With “HMNARSTSYSDFIARVDKDEVASVRLDGETVTYQAADGTTYTTVKPESDPIAERLIAKGIEVNVVRQ”, the “soluble fraction (log2)” value was -0.519.

As to “HMNASITVPDVRNLTVKQASEQLLASGFTPIPYAATKDGVGNDIVYAQDPPPSVLARSGDQITITYNPA”, the “soluble fraction (log2)” value was determined as 0.198.

For “HMNASTVTLENFEGAKYDDVYGKYDYQFSVTYEQTDKYESGVIISQKPEAGTKIIKGSQVSLVVAT”, the “soluble fraction (log2)” value is 0.101.

Take “HMNASVIADLFRQTGASVMIHGHTHRPDIHALEANGDAAFRAVLGAWHTEGSMIRVTQDDVTLIAFP”: the “soluble fraction (log2)” value was found to be 0.173.

Regarding “HMNATLEQLTQREREIAVLMAEGLTNAQIGSRLNVSMASVKAHLSHIFTKLGVDNRVSAAMMVL”, the “soluble fraction (log2)” value is -0.0121.

Take “HMNATPDMERYWASSAAEGRALEPLYAVSRGDGGEPLWWSPSRAQAERMAREEGGPLTVDRIDPP”: the “soluble fraction (log2)” value was -0.0463.

As to “HMNAVYAEERRAYILAALEKRGTVHSYELAEQMGVSRETIRRDIMELSNRGLLVKTHGGAIST”, the “soluble fraction (log2)” value was -0.352.

Take “HMNAYEVLIPNIYIGQRVDQTLASLFPQFSRSRLQNWLARGNLLIDGEIIKPKTKVLGGEQIIILDT”: the “soluble fraction (log2)” value is -1.05.

Regarding “HMNDAEEKAEAIEGVKNFMANMEKTDIDFKSKESVLLEQVEEIRKNYPVAQWPVIVKQLYNNIGRL”, the “soluble fraction (log2)” value was -0.257.

On to “HMNDIDKFVAALVDQDTMAGTNRAFDENDIQTMKNMSSIEDVKQYAVANGLSSGKVNNALISAGL”, for which the “soluble fraction (log2)” value is -0.195.

With “HMNDIQIILQEAVARLPKKQQLVFNMKYFDHLKYQEISEILGTSVGGLKASYFQAVKKIENYIINKH”, the “soluble fraction (log2)” value came to 0.0158.

On to “HMNDRLFQILYLLLEKGTMTAPELSRALEVSVRTIYRDIDALSLAGVPVYATQGKNGGVSLLPNY”, for which the “soluble fraction (log2)” value is -0.758.

Regarding “HMNDTLQEYFEALERLKSNNPINVPKNTKINNDSVALEAGRKRGSIKKSREIFAELIEAINNAS”, the “soluble fraction (log2)” value was -0.186.

In the case of “HMNDVEAIDDALKDLHKVSPDLAALVEMKFFGGMTEPEISEILGVSERTVRREWEKARAALLVLLE”, the “soluble fraction (log2)” value was -1.18.

Take “HMNDVHELPYSSFIEMVERGHVISVTVKHINIEFESTKNENYRTIAPQAMTPPYLELLLKNKDSVKVTFLP”: the “soluble fraction (log2)” value was -0.516.

Regarding “HMNDVLVGAIPESASGSRLDKVMPSVFPPYSRSQLQVWLKQGRILMGNGIPSPRLIVSGGEVLSLVVPELP”, the “soluble fraction (log2)” value is -0.244.

With “HMNEDFSEIIAAVKKFAVDNLSLSTLSDEELEEQIKTITDNMIGNRYVSIKNRVDIAQQVFSSIR”, the “soluble fraction (log2)” value was -0.435.

“HMNEMEFAQRLRQFRKAKNLTQQELADRLGVSNKSVSRWESGSYPDVGTLVALARALGVTVDELLDPKA”: the “soluble fraction (log2)” value was 0.149.

Take “HMNEMEWVAKLIDQLPERERMILQLREIEQYEFDQIASLMEIPEGTVRVYLSRIRKKIKKQFIEIQSH”: the “soluble fraction (log2)” value was -0.405.

As for “HMNENFPYRLKEMVVVQSRTWPGINKPGGVGQVMKINPEAGTVNVKYVLGGSEKNIELKYVTSNDLNSK”, the “soluble fraction (log2)” value was 0.063.

With “HMNENYNLSKREKEVLDLLVNGKSYKVIATELAISYETVHSHIKKIYHKLHVSSIGEAVSKTIKQKIL”, the “soluble fraction (log2)” value was -0.561.

With “HMNEPITIALREAEEAANKILNEGVHSVELSPQNGYVRRLQHELIARYGLTSASRGSDPSRRVSVGAN”, the “soluble fraction (log2)” value is -0.273.

With “HMNEQKVSSLLTPRQLAFIDEYLIDFNGAQAAIRAGYSHKTAGPQAARLLVNVNISRMIAERIEARNK”, the “soluble fraction (log2)” value is -1.22.

Consider “HMNEQVAVVSGSQVNVRSGPGTTSAVVGQVSKGDNLPVLNQSGDWYQIKLPGGNAGWVAGWLVSLRPTT”, for which the “soluble fraction (log2)” value came out at 0.237.

Take “HMNESPVLAVLTPTERKVASLVAEGLTNQAIAARMILAEGTVKNHVSTLLHKLQAPDRTALALTLYKAFQ”: the “soluble fraction (log2)” value came out at 0.165.

With “HMNETRVDQAADLLLALLEKEPKSAAEILDEFEQAGFSKSGLYRAKDALGVVSIRKEGRWVWSLPHSLD”, the “soluble fraction (log2)” value was -0.778.

For the sequence “HMNEYIVSAEQEGMRLDVFLTEQMEGSRSYIQSLIKGGHVTVGDKVGKANLRLTPDTVIHVEIPEPE”, the “soluble fraction (log2)” value is -0.166.

As for “HMNEYLPEAVQKLLEVMEYDIPYTSNELMERLGLKAKEGFRRNYLHPAMEMKLIQMTIPDKPNSRNQRYLR”, the “soluble fraction (log2)” value was -0.248.

As to “HMNFHLEHHIAELLYRSIRGELSDFERQELNQWRSDSPMHETLFMRLQDDEYIDEELGVFIK”, the “soluble fraction (log2)” value was -1.89.

In the case of “HMNFKNMIDSLSGILFKKDPSAAIIDIGGVRLKVFITVGSYEQLPAKGEQVEILTYLHVKEDILNLYG”, the “soluble fraction (log2)” value is -0.819.

Turning to “HMNFMDGFQSFFQESGAMNRPMTADVVSYRLPDGTVQQGNSTMRGLMDQYLKSIGQSPTTGVP”, the “soluble fraction (log2)” value was -0.176.

As to “HMNFRESVLAVFENSKQKYLDFDEIAKRLGLTRGFDRQALASMLNELTRNDEIVFTKRNKYTLPEN”, the “soluble fraction (log2)” value was -0.774.

Consider “HMNGAVAEQARKQLMAALKASEFIAEEKLDEWLDALALPEDKRTAIVDAVDELDYEEAISELEN”, for which the “soluble fraction (log2)” value was 0.0531.

“HMNGDYFEYRYAVNGSRSTPPSLSKTSRNPSGWSTTVPTVGNLQYLWFTVAKINGETNSLIQNWSTPARQT”: the “soluble fraction (log2)” value was 0.143.

As to “HMNGEAQTMYVTARTLNVRKGPGTSYAKAGTLSRGTAVQVVGFSGNWAKLSNGYYVSTSYLAKI”, the “soluble fraction (log2)” value came to 0.0208.

For the sequence “HMNGKWKLRIIKELLHSNIRFGQILKNIPDISPKVLSQQLKEMEEDGIIERIVISEMPPNVEYVLTDMGE”, the “soluble fraction (log2)” value was -0.458.

Turning to “HMNGLNISYRMDGENVVETIVFPDATMIRTIAPNGVMTIKTIEDGSVSTSELKADYKLYKKIYESQY”, the “soluble fraction (log2)” value was -0.401.

For “HMNGSVLVTGGSVWIRAGASKETDGLGIVHKGDVLKRSGSDASGWRGVVYEGQNAFISAKYSSI”, the “soluble fraction (log2)” value is 0.424.

Consider “HMNGTEAIRRYIDQFASKHATTPRMLKLNERKQLIQELKNNGLLEIKKAVETVAQHLGISRASAYLYVKE”, for which the “soluble fraction (log2)” value was at least 0.43.

With “HMNGVPDMSPVPEGARNSTLHAWAFGRLKNHPDNETGIREDLFRRGHASGLQDAELDQIWKSIKRTL”, the “soluble fraction (log2)” value was at least 0.43.

Take “HMNGVSNETLIQKSALYEELNQPDLALKMINTALKKDSVNIEILHRLVTLLMSQEKNEEAILYNQKIIDH”: the “soluble fraction (log2)” value was -0.0993.

As to “HMNHSITLTERKNLLITGVKKIENFDKEEFLIETTMGFLVVKGDGLELIKLDTISGNVSIKGIVNGFTYID”, the “soluble fraction (log2)” value amounted to 0.0772.

As for “HMNIAAVIGQTGVLQDDLKAGEQGTVKADNKLWTAVLAEGEEAVKKEERVDIVAVEGVKLIVRRNI”, the “soluble fraction (log2)” value was -1.14.

Regarding “HMNIDEIFLTKNEIYFSFEYQKKSQLDRYSKIISLDHRIDKNTAYAYANKKQFLNFINLNIDYKIIDNSF”, the “soluble fraction (log2)” value is -1.

On to “HMNIDEIIGKKAVVIESIDNLQGTGKVRYQGMEWTARAEEENDRIEKDAEVEIIAVKGVKLIVKMK”, for which the “soluble fraction (log2)” value is -0.19.

Take “HMNIDNTWQPSEDVVEILTRSGINEDFINELIPEFIVYWTERPGTLVSYNSKFIEHVRLKWAQHSAEI”: the “soluble fraction (log2)” value is -1.04.

As for “HMNIDVAAEKQQLGPNADQIVKGTVTWMQGLVAKGIWSETDFEEGKIFTATADGINAINKIRRYYGEQT”, the “soluble fraction (log2)” value was -0.439.

Turning to “HMNIEDFKDKVKELKQYTYQELVEDVKLKTDRADVILPASKIYLEAMQQAKVDSIIVPKVGLAEGVAR”, the “soluble fraction (log2)” value came to 0.149.

As for “HMNIEEQVVAEVLVKDFMKQLTPRDIHILELRKNGYTYQEIAGQLGYHTHSAVKKRVDRLAEQWLAYTQGH”, the “soluble fraction (log2)” value was -0.739.

Regarding “HMNIFAHQIGKLRTERHLSQTDVAKRLYVSRQAVSKWENGDAEPSLDNLIALAKLFNVSLDNLITGQ”, the “soluble fraction (log2)” value turned out to be 0.138.

Take “HMNIGVEQIEQMERGALITLWQELIDKPLPRHMSIVFLRQVLAFEVQSKQNGGLPRGFITLLNKQAD”: the “soluble fraction (log2)” value is -0.868.

As to “HMNIKITKSKNSEHYSIIYNTKINGKRTSKIYENIGNFEKLKLRAGEQEPIEWLKNYVSELNKKQKEDT”, the “soluble fraction (log2)” value is 0.22.

With “HMNIKYDFPTNSPLEMMRNLFDSNSQIINDLKDGFAMANSLNEQGLANFFAERIDKHQFWSWQLSASL”, the “soluble fraction (log2)” value was determined as 0.177.

As for “HMNILDPTVMKNILDKNHEEFIAIYESAPLGQKTIINSMVFDKRLNGENVDANILMYLQNKTNIDYINIEP”, the “soluble fraction (log2)” value was -1.47.

As to “HMNILNYIIENENQEVRVDKFLSDTIEDMSRSSVASIIEDGGLLVNDKLQNKKYKLKIGDKVQFTVPDPV”, the “soluble fraction (log2)” value is -0.121.

Regarding “HMNILVAISDTGEIWINKRRVDARAVQANIERLHAENPQGTVVIQADKQATTETLIKVMDASRAAGVFDVS”, the “soluble fraction (log2)” value was -0.759.

The values above are taken from the domain aggregation screens of Martell et al. (2025).
